Target: DC-SIGN-Fc (human) (UniProt Q9NNX6)
Chain of UniProt Q9NNX6 (Q9NNX6 59-404): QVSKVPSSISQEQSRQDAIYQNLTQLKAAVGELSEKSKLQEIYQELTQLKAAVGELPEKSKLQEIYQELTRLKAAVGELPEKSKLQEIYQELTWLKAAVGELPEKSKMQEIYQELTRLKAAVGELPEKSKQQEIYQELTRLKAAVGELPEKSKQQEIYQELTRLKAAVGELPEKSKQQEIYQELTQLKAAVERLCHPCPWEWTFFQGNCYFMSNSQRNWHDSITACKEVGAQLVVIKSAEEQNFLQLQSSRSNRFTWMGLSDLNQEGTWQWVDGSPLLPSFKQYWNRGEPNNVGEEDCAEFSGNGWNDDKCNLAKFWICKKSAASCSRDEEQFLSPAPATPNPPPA

**Q.** Which IL-10 induction in iMDDCs by JR-FL gp120 (3 μg/ml) at 24 h after pre-incubation of the cells with anti-DC-SIGN mAb AZN-D1 (40 μg/ml); DC-SIGN here is the whole receptor on MDDCs does the source give for “HIV-1 JR-FL gp120 (recombinant monomeric gp120; mock-treated form M-gp120) (natural protein)” here?
**A.** Its IL-10 induction in iMDDCs by JR-FL gp120 (3 μg/ml) at 24 h after pre-incubation of the cells with anti-DC-SIGN mAb AZN-D1 (40 μg/ml); DC-SIGN here is the whole receptor on MDDCs is 50 % reduction.
